Assay results: the nanobody polyreactivity screen of Harvey et al. (2022)

Experiment: yeast display, Sf9 membrane polyspecificity reagent, FACS + sequencing; frameworks hold sequencing errors
Summary of the method: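 Genes from sorted yeast were amplified by colony PCR, read by MiSeq 2 × 250 sequencing and filtered on CDR length. These cells carried a synthetic nanobody library in Saccharomyces cerevisiae BJ5465 and were sorted by FACS into low and high (top ~1%) gates on anti-HA and streptavidin fluorescence. Polyreactivity is labelled according to the gate of origin.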

Row | Sequence | polyreactivity (PSR sort gate)
1 | QFQLVESGGGFVQAGGSLRLSCAASGRIFYRYAMGCYSQAPGKERELVAAITWRGGSTYYADSVKGRFTISRDNANNTVYLQMNSLKPEDTAVYYCAAAAYGVPWRSYLGVFKSHMDYWGQGTQVTVSS | high polyreactivity
2 | QVQLVESGGGLVQAGGSLRLSCAASGSTFGFYAMGWYRQAPGKERELVAAISGRGGSTYYADSVKGRFTISRDNAKNTVYLQMNSLKPEDTAVYYCNADWQDDLAGYDVDYWGQGTQVTVSS | low polyreactivity
3 | QVQLVESGGGLVQAGGSLRLSCAASGLTFTGYAMGWYRQAPGKERELVAAISSRGGSTYYADSVKGRFTISRDTAKNTVYLQMNRLKPEDTAVYYCNAVVVVGRRDYWGQGTQVTVSS | high polyreactivity
4 | QVQLVESGGGLVQAGGSLRLSCAASGSIFYPYAMGWYRQAPGKERELVAAISDSGDITYYADSVKGRFTISRDNAKNTVYLQMNSLKPEDTAVYYCAADRPWGYDYWGQGTQVSVSS | low polyreactivity
5 | QVQLVESGGGLVQAGGSLRLRCAASGSTFTKNAMGWYRQAPGKERELVAAISFTTGRTYYADSVKGRFTISRDNAKNTVYLQMNSLKPEDTAVYYCNKVYARSEQRGPVAGNYWGQGTQVTVSS | high polyreactivity
6 | QVQLVESGGGLVQSGGSLRLSCAASGSTFTLYAMGWYRQAPGKERELVAAIRASVGRTYNADSVKGRFTISRDNAKNTVYLQMNSLKPEDTAVYYCNAYGRYGKFRVEYDYWGQGTQVTVSS | low polyreactivity
7 | QVQLVESGGGLVQAGGSLRLSCAASGLTFVQNAMGWYRQAPGKERELVAAISSRGGSTYYADSVKGRFTISRDNAKNTVYLQMNSLKPEDTAVYYCNTRSITKYDYWRRGYGYWGQGTQVTVSS | high polyreactivity
8 | IIQAGGSLRLSCAASGSTLIGYTMGWYRQAPGKERELVAAITWGAGSTNYADSVKGRFTISRDNAKNTVYLQMNSLKPEDTAVYYCNADSTSDPRYLGEYDYWGQGTQVTVSS | low polyreactivity
9 | QVQLVESGGGLVQAGGSLRLSCAASGGTFRYNAMGWYRQAPGKERELVAAIRWSGGRTYYADSVKGRFTISRDNAKNTVFLQINSLKPEDTAVYYCAALYRGYAVAASYYLWGLGTQVTVSS | high polyreactivity
10 | QVQLVESGGGLVQAGGSLRLSCAASGSTFGPYAMGWYRQAPGKERELVAAIRSDGGTYYADSVKGRFTISRDNAKNTVYLQMNSLKPEDTAVYYCNAVRGAAWRCYNSWQTYPRDYWGQGTQVTVSS | high polyreactivity
11 | QVQLVESGGGLVQAGGSLRLSCAASGFIIYLYAMGWSRQAPGKERELLAAISRGGGTTYYADSVKGRFTISRDYAQNTVYLQMNSLKPEDTAVYYCAAETEYYSYRFDYWGQGTQVSVSS | high polyreactivity
12 | QVQHVESGGCLDQAGGSLRLSCAASGIFRTNARGWYRTAPGKERELVAGISSGGGTNYADSVKGRFTISRDNAKNTVYLQMNSLKPEDTAVYSCAKERIYFYYWYVYSDLVYEYDYCGQGTQVTVSS | low polyreactivity
13 | QVQLVESGGGLVQAGGSLRLSCAASGSIFYGYDMGWYRQAPGKERELVAAITIGGGTTYYADSVKGRFTISRDNAKNTVYLQMNSLKPEDTAVYYCAAEFYYTIYSNKVGYDYWGQGTQVTVSS | high polyreactivity
14 | QVQLVESGGGLVHAGGSLRLSCAASRRNFTRNAMGWYRQAPGKERELVAAIRRGGRTNYADSVKGRFTISRDNAKNTVYLQMNSLKPEETAVYYCNKAGWLKWAPRQYYYWGQGTQVTVSS | high polyreactivity
15 | QVQLVESGGGLVQAGGSLRLSCAASGRTFWKYAMGWYRQAPGKERELVAAITASGARTYYADSVKGRFTISRDNAKNTVYLQMNSLKPEDTAVYYCNAGSVSDRQMDYWGQGTQVTVSS | low polyreactivity
16 | QVQLGESRGGLVQAVGSLSLSCAAYGFTYDKNAMGWYIQAPGNESALDAAINIRSTYYAESVKGRFTISRDNAKNTVYLQMNSMKPEDTAVYYCANEVPSGYWFNYYYWGQGTQVTVSS | low polyreactivity
17 | QVQLVESGGGLVQAGGSLRLSCAASGIIFRYNTMGWYRQAPGKERELVAAISKRGGSTYYADSVKGRFTISRDNAKNTVYLQMNSLKPEDTAVYYCAARYYSASYYNYGYWGQGTQVTVSS | high polyreactivity
18 | QVQLVESGGGLVQAGGSLRLSCAASGSTFIGYAMGWYRQAPGKERELVASISWGGGSTYYADSVKGRFTISRDNAKNTVYLQQNSLIPEDTAVYYCNTYYWFSGCPYDYWGQGTQVTVSS | low polyreactivity
19 | QVQLVESGGGLVQAGGSLRLSCAASGGTFGFYAMGWYRQAPGKERELVAAISWSGVGTYYADSVKGRFTISRDNAKNTVYLQMNSLKPEATAVYYCAAKQYTQKISSPGTILRYYYWGQGTQVTVSS | high polyreactivity
20 | QVQLVESGGGLVQAGGSLRLSCAASGFTFSWYVMGWYRQAPGKERELVATITNRGGSTYYADSVKGRFTISRDNAKNTVYLQMNSLKPEDTAVYYCAARNYGKYRTNDYWGQGTQVTVSS | high polyreactivity
21 | QVQLLESGGGLDQAGGSLRLSCAASGRTFDRYAMGWYRQAPGKERELVAAISGRGGSTYYADSVKGRFTISRDNAKNTVYLQMNSLKPEDTAVYYCAARGSLWGAPTDYYYWGQGTQVTVSS | high polyreactivity
22 | QVQLVESGGGLVQAGGSLRLSCAASGSTSYVYAMGWYRQAPGKERELVAAISNTGNTNYADSVKGRFTISRDNAKNTVYLQMNSLKPEDTAVYYCNADRRGENDWHERDYWGQGTQVTVSS | low polyreactivity

Row | Sequence | polyreactivity (PSR sort gate)
23 | QVQLVESGGGLVQAGGSLRLSCAASGRIFPHYSMGWYRQAPGKERELVAAISWSGSSTYYADSVKGRFTISRDNAKNTVYLQMNSLKPEDTAVYYCNAVRRGIGYDYGYWGQGTQVTVSS | high polyreactivity
24 | QVQLVESGGGLVQAGGSLRLSCAASGSTFTSYTMGWYRQAPGKERELVAAISRGGGRTYYADSVKARFTISRDNAKNTVYLQMYRLNPEDTAVYYCNKVLRGDRAGPGYDHWGLGTQVTVSS | high polyreactivity
25 | QVQLVESGGGLVQAGGSLRLSCAASGSTFPVYTLGWYRQAPGKERELVAAISWRGTSTYADSVKGRFTISRDNGKNNVYLQMNRLIPEDTAVYYCAAGDTRGMDYWGQGTQVTVSS | high polyreactivity
26 | QVQLVESGGGLVQAGGSLRLSCAASGRIFVYNAMGSYRQAPGKERELVAAINSGTITNSADSVKGRFTISRDNGKNTVYLQMNSRIPEDTAVSYCAAPWYPSTDYNYWGQGTQVTVSS | low polyreactivity
27 | QVQLVESGGGLVQAGGSLRLSCAASGSIFYIYAMGWYRQAPGKERELVAAISWRTSSTYYADSVKGRFTISRDNAKNTVYLQMNSLKPEDTAVYYCAAETWLGSWRQVGMDYWGQGTQVTVSS | high polyreactivity
28 | QVQLVESGGGLVQAGGSLRLSCAASGSIFAYYAMGWYRQAPGKERELVAGIRISGGRTYYADSVKGRFTISRDTAKNTVYLQMNSLKPEDTAVYYCNARWRGFRTGAGDYWGQGTQVTVSS | high polyreactivity
29 | QVPLVESGGGLVQAGGSLRLSCAASGSTFRRYGMGWYREAPGKERELFAAISKGGTRTYYADSVKGRFTISRDNAKNTVYLQMNSLKPEDTAVYYCNKAWYAYGPVYASWYGEYDYWGLGTQVTVSS | high polyreactivity
30 | QVQLVESGGGLVQAGGSLRLSCAASGSIFQYNAMGWSRQAPGKERELVAAISSRGGITYYADSVKGRFTISRDNAKNTVYLQMNSLKPEDTAVYYCAAEAYYSEVRWYEYWGQGTQVTVSS | high polyreactivity
31 | QVQLVESGAGLVQAGGSLRLSCAASGRTFDSNAMGWYRQAPGKEREFFASIRWTVTSTYYADSVKGRFTISRDNAKNTVYLQMNSLKPEDTAVYYCNAEDYYYVGRSDYWGQGTQVTVSS | low polyreactivity
32 | QVQHVESGGGLVQAGGSLRLSCAASGSTFRYYTMGWYRQAPGKERELVAAISGSGGITYYADSVKGRFTISRDNAKNTVYLQMNSLKPEDTAVYYCNAGVFYRDDYWGQGTEVTVSS | high polyreactivity
33 | QVQLVESGGGLVQAGGSLRLSCAASGSISVFYAMGWYRQAPGKEREFVAAISWRGGRTYYEDSVKARFTISRDNANNTVYLQMNSLKPEDTAVYYCAKDIVRGRSSRYDYWGQGTQVTVSS | high polyreactivity
34 | QVQLVESGGGLVQAGGSLRLICAASGGPFGYYTMGWYRQAPGKERELVAAISSGGGTDYADSVKGRFTISRDNAKNTVYLQMNSLKPEDTAVYYCNAKWLEWHYVFLPSYTMDYWGQGTQVTVSS | low polyreactivity
35 | QVQLVESGAGLVQAGGSLRLSCAASGRTFSGYAMGGYRQAPGKERELVAAISWRGGRTYYADSVKGRFTISRDNAKNTVYLLMYSLKPEDTAVYYCNTVGHVYYGEFDYWGQGTQVTVSS | high polyreactivity
36 | QVQLVESGGGLVQAGGSLRLSCAASGSIFRVYTMGWYIQAPGKERELVAAISRSGGRTYYADSVKGRFTISRDNAKNTVYLQMNSLKPEDTAVYYCAARSSLYRAGYRYNSWGQGTQVTVSS | high polyreactivity
37 | QVHLVESVGGLVQAGGSLRLSCAGSGRIFYLNSMGWYRQATGKDRELVAGITNSTTGTYYADSVKGRFKISRDNAKNTVYLQMNSLKAEETAVYYCNTDVAYEEPVETYDYWGQGTQVTVSS | low polyreactivity
38 | QVQLVESRGGLVQAGGSLRLSCAASGSIFPYNAMGWYRQAPGKEREFVAAINLSGGSTNYADSVKGRFTISRDNAKNTVYLQMNSLKPEDTAVYYCNAPVDYFWPLNFDYWGQGTQVTVSS | low polyreactivity
39 | QVQLVESGGGLVQAGGSLRLSCAASGRIFKLNAMGWYRQAPGKERELVAAITRGGRTYYADSVKGRFTISRDNAKNTVYLQMNSLKPEDTAVYYCNKKTYQQTYKYDYWGQGTQVTVSS | high polyreactivity
40 | QDQLVDSGGGLVQAGGSLRLSCAASGLSFDLYDMGWYRQAPGKERELVAAIDWSATRTYYADSVKGRFTISRDNAKNTVYLQMNSLKPEDPAVYYCNAEAVYEYWIYDYWGQGTQVTLSS | high polyreactivity
41 | QVQLVESGGGLVQAGGSLRLSCAASGSTFTKYDMGWYRQAPGKERELVAAIRSGGDTNYADSVKGRFTISRDNAKNTVYLQMNSLKPEDTAVYYCAATVLGDYEYWGQGTQVTVSS | low polyreactivity
42 | QVHLVESGGGLVQAGGSLRLSCAASGRIFTFYAMGWYRQAPGKERELVAAISSSGVRTYYADSVKGRFTISRDNAKNTVYLQMNSLKPEDTAVYYCAAASRANSYRYNYWGQGTQVTVSS | high polyreactivity
43 | QVQLVESGGGLVQAGGSLRLSCAASGSTFSGNARGWDRQAPGKERELVAAISRRGGSTNYADSVKGRFTISRDNAKYTVYLKMNSLKPEDTAVYYCNKGDYRSAYRHIEYGYWGQGTQVTVSS | low polyreactivity
